Reference: US20240262905A1 (PANDION OPERATIONS, published 2024)

Tests used:
mouse PD-1 = biological target: T1, mouse PD-1 (mouse, UniProt Q02242 25-167, limits assumed); assay: no binding assay described; said in the vitiligo mouse model example
T1 sequence (looked up): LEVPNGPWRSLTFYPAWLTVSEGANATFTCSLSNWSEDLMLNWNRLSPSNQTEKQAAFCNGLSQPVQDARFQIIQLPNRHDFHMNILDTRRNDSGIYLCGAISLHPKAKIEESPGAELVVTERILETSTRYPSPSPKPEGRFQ

[1] = biological target: PD-1 on PD-1 reporter Jurkat cells (human, UniProt Q15116 25-288); assay: cell-based or functional assay
human DSG-3 = biological target: T2, human DSG-3 (human, UniProt P32926 50-615, limits assumed); assay: BLI (Octet), test article captured on anti-human Fc biosensors, human DSG-3 as analyte, 1:1 global fit
T2 construct: Soluble analyte (Octet) and plate coat (ELISA); also called hDSG-3
T2 sequence (looked up): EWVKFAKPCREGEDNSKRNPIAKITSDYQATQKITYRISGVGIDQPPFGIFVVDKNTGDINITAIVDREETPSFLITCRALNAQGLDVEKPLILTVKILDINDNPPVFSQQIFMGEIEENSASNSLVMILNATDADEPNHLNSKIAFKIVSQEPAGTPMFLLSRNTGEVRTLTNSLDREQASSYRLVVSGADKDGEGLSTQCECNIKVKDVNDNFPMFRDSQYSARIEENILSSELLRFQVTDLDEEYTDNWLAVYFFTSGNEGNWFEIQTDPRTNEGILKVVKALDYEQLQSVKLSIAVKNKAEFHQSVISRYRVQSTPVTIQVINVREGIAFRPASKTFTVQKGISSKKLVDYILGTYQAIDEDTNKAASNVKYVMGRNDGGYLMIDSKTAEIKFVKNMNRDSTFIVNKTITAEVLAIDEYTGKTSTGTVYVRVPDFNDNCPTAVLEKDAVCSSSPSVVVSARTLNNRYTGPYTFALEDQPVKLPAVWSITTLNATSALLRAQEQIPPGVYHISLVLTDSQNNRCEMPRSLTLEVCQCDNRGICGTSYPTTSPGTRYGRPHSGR
Description: Anti-human Fc biosensors were equilibrated in assay buffer (PBS, pH 7.4 with 1% BSA, and 0.05% Tween-20) for 30 minutes before the experiment was set-up. Test articles were diluted to 5 ug/mL in assay buffer. A two-fold, seven-point dilution of human DSG-3 (starting at 300 nM as the highest concentration) was made. Test articles were captured using anti-human Fc biosensors for 180 s. Biosensors loaded with test articles were equilibrated in assay buffer for 120 s; association was performed for 180 seconds and dissociation was performed for 300 s. Kinetic parameters (kon and kdis) and dissociation constant (KD) were calculated from a 1:1 global fit model using the data analysis software of the Octet96 RED software version 10.

Chain of PD-1 on PD-1 reporter Jurkat cells (Q15116 25-288): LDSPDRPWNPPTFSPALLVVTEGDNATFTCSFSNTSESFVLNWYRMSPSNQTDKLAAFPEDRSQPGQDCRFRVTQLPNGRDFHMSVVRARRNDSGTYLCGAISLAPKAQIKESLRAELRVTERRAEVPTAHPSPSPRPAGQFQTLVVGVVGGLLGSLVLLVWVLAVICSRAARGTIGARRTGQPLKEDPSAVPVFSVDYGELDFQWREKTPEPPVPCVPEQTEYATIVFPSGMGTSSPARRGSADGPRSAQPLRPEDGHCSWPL

binding result (mouse PD-1): no binding
SHP-2 recruitment in PD-1 reporter Jurkat cells (test article on anti-human IgG coated plate), EC50 at 2 hours [1]: 21.2 nM
SHP-2 recruitment in PD-1 reporter Jurkat cells (test article on anti-human IgG coated plate), EC50 at 24 hours [1]: 16.6 nM
Kd (human DSG-3): 29 nM
koff (human DSG-3): 0.000757 s⁻¹
B1: PD1DSGAB9 (bispecific antibody)
heavy: EVQLLESGGGLVQPGGSLRLSCAASGFTFSNSDMSWVRQAPGKGLEWVSGITISGGSTYYADSVKGRFTISRDNSKNTLYLQMNSLRAEDTAVYYCARGRGGSGWLDYWGQGTLVTVSSASTKGPSVFPLAPSSKSTSGGTAALGCLVKDYFPEPVTVSWNSGALTSGVHTFPAVLQSSGLYSLSSVVTVPSSSLGTQTYICNVNHKPSNTKVDKKVEPKSCDKTHTCPPCPAPEAAGAPSVFLFPPKPKDTLMISRTPEVTCVVVDVSHEDPEVKFNWYVDGVEVHNAKTKPREEQYNSTYRVVSVLTVLHQDWLNGKEYKCKVSNKALPAPIEKTISKAKGQPREPQVYTLPPSREEMTKNQVSLTCLVKGFYPSDIAVEWESNGQPENNYKTTPPVLDSDGSFFLYSKLTVDKSRWQQGNVFSCSVMHEALHNHYTQKSLSLSPGGGGGSGGGGSGGGGSQSVLTQPPSVSGTPGQRVTISCSGSSSHIGSNYVYWYQQLPGTAPKILIYSNDQRPAGVPDRFSASKSGTSASLAISGLRSEDEADYYCAAWDDGQGGVFGGGTKLTVLGGGGSGGGGSGGGGSGGGGSQVQLQESGPGPVKPSGTLSLTCGVSGGSISSNHWWTWVRQPPGKGLEWIGEIYHNGSTFLNPSLKSRVTISVDKSNNQFSLKLTSVTAADTAVYYCARGWHRTGFRGYPSHWYFDLWGRGTLVSVSS
light: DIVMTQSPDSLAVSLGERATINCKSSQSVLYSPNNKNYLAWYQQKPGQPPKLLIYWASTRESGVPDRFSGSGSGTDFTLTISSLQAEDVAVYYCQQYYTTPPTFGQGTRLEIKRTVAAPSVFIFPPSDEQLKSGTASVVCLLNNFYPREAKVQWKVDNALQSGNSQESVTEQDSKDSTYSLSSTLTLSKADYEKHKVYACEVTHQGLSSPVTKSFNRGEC
notes: also called PD1DS91; copies: 2 + 2
